From patent US20230110188A1 (ARGENX IIP, published 2023)

Columns and labels:
[1] = target: T1, Human MuSK (R&D Systems, cat. 10189-MK, histidine tag) (human, UniProt O15146 24-495); assay: SPR (Biacore), MuSK-coated chip presaturated with 3F6c
T1 construct: Bought protein; also called human monomeric MuSK-6xhis; not shown: histidine tag (6xhis)
T1 sequence: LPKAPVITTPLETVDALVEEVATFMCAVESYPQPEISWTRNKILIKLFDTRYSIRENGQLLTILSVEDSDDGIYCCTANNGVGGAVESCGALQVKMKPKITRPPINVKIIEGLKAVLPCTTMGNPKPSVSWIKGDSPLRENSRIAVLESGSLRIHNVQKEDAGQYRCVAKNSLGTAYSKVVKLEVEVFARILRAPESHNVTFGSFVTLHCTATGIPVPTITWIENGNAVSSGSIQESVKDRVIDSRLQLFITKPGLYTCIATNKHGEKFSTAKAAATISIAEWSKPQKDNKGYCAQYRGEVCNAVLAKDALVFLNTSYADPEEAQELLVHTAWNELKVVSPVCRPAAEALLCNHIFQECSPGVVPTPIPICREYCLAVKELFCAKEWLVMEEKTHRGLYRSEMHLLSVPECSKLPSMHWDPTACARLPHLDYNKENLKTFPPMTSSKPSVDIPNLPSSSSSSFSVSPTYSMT

[2] = target: T1, Human MuSK (R&D Systems, cat. 10189-MK, …); assay: SPR (Biacore), MuSK-coated chip presaturated with 500 nM 4D3 (competitor)
Procedure: (§1) A chip was coated with ˜5000 RU of human MuSK (Lot nr DHUCO 11908A, batch nr 1089_MK). In a first experiment the saturating concentration of the pre-leads was determined. This is the concentration where the amplitude of a specific pre-lead doesn't increase anymore when additional pre-lead is injected on the immobilized MuSK.

[3] = target: T1, Human MuSK (R&D Systems, cat. 10189-MK, …); assay: SPR (Biacore), MuSK-coated chip presaturated with 500 nM 3F6c (competitor)
Procedure: as §1

[4] = target: T1, Human MuSK (R&D Systems, cat. 10189-MK, …); assay: SPR (Biacore), MuSK-coated chip presaturated with 500 nM 3D9b (competitor)
Procedure: as §1

[5] = target: T1, Human MuSK (R&D Systems, cat. 10189-MK, …); assay: SPR (Biacore), MuSK-coated chip presaturated with 500 nM 3D10a (competitor)
Procedure: as §1

[6] = target: T1, Human MuSK (R&D Systems, cat. 10189-MK, …); assay: SPR (Biacore), MuSK-coated chip, antibody alone (run of first antibody 4D3)
Procedure: as §1

[7] = target: T1, Human MuSK (R&D Systems, cat. 10189-MK, …); assay: SPR (Biacore), MuSK-coated chip, antibody alone (run of first antibody 3F6c)
Procedure: as §1

[8] = target: T1, Human MuSK (R&D Systems, cat. 10189-MK, …); assay: SPR (Biacore), MuSK-coated chip, antibody alone (run of first antibody 3D9b)
Procedure: as §1

[9] = target: T1, Human MuSK (R&D Systems, cat. 10189-MK, …); assay: SPR (Biacore), MuSK-coated chip, antibody alone (run of first antibody 3D10a)
Procedure: as §1

[10] = target: T2, human monomeric MuSK FLAG streptavidin (in house produced, batch 27-6-2019) (human, UniProt O15146 24-495); assay: epitope binning ELISA (coated anti-MuSK Fab, MuSK, IgG, anti-Fc HRP); competitor: 4D3
T2 construct: also called full length MuSK; not shown: FLAG and streptavidin tags
T2 sequence: T1 sequence
Procedure: (§2) For epitope binning—An ELISA plate was coated at 1 μg/ml of the anti-MuSK Fabs and incubated overnight at 4° C. Next, the plate was wash with PBS followed by blocking with 1% casein in PBS for one hour. After washing the plate, 1 μg/ml of human monomeric MuSK (in house produced, batch 27-6-2019) was incubated for one hour at RT. The plate was washed and anti-MuSK antibodies at 0.3-10 μg/ml were added to the plate and incubated for one hour at RT. After washing the plate, detection antibody (goat anti-human Fc HRP (Jackson Immunoresearch cat. 109-035-098)) was added at 5000 fold dilution in PBS 0.1% casein. The plate was incubated for one hour at RT and washed with PBS-T. TMB was added and the reaction was stopped by adding H2504. […]
(§3) For the epitope binning ELISA, a plate was coated with anti-MuSK Fab and human monomeric MuSK was added after blocking the plate. Next the different antibodies were added and allowed to bind.

[11] = target: T2, human monomeric MuSK FLAG streptavidin …; assay: epitope binning ELISA (coated anti-MuSK Fab, MuSK, IgG, anti-Fc HRP); competitor: 3D9b
Procedure: as §2, §3

[12] = target: T2, human monomeric MuSK FLAG streptavidin …; assay: epitope binning ELISA (coated anti-MuSK Fab, MuSK, IgG, anti-Fc HRP); competitor: 3F6c
Procedure: as §2, §3

[13] = target: T2, human monomeric MuSK FLAG streptavidin …; assay: epitope binning ELISA (coated anti-MuSK Fab, MuSK, IgG, anti-Fc HRP); competitor: 3B5wt
Procedure: as §2, §3

[14] = target: T2, human monomeric MuSK FLAG streptavidin …; assay: epitope binning ELISA (coated anti-MuSK Fab, MuSK, IgG, anti-Fc HRP); competitor: 3D10a
Procedure: as §2, §3

- fold of binding signal against amplitude on non-saturated MuSK [1]: ≥ 3 fold
- amplitude of prelead after presaturating MuSK (RU) [2]: 141 RU
- extra amplitude (%) [2]: 93%
- normalized extra amplitude (%) [2]: 88.1%
- amplitude of prelead after presaturating MuSK (RU) [3]: 2230 RU
- extra amplitude (%) [3]: 397%
- normalized extra amplitude (%) [3]: 395%
- amplitude of prelead after presaturating MuSK (RU) [4]: 2150 RU
- extra amplitude (%) [4]: 539%
- normalized extra amplitude (%) [4]: 538%
- amplitude of prelead after presaturating MuSK (RU) [5]: 2260 RU
- extra amplitude (%) [5]: 344%
- normalized extra amplitude (%) [5]: 342%
- amplitude of prelead without presaturating MuSK (RU) [6]: 151 RU
- amplitude of prelead without presaturating MuSK (RU) [7]: 562 RU
- amplitude of prelead without presaturating MuSK (RU) [8]: 399 RU
- amplitude of prelead without presaturating MuSK (RU) [9]: 658 RU
- OD 450 nm [10]: 1.96 OD
- OD 450 nm [11]: 1.99 OD
- OD 450 nm [12]: 2.03 OD
- OD 450 nm [13]: 0.048 OD
- OD 450 nm [14]: 1.88 OD
B1: 3B5 (antibody, V domains shown)
VH: QVQLVQSGAVVAKPGASVQVSCKTSGYTFTGQYLHWVRQAPGQGLEWIGWINPSSGVTKFAEKFEGRATMTRDTSITTAYIDLRSLRSDDTATYYCATLSLGVYYVGMVAWGQGTLVTVSS
VL: ELTQPPSVSVSPGQTATITCSGDGLAQQHVYWFQQRPGQAPLLIIYKDIERPSGIPERFSGSSSGTTAMLTISGVQAEDEADYYCQSGDRTATSVLFGGGTKMTVLG
notes: also called 3B5wt
